Measurements from patent US8318172B2, “Breaking immunological tolerance with a genetically encoded unnatural amino acid” (The Scripps Research Institute, priority 2008, dated 2012).
Where a chain is given by its changes, count along the chain named.

B1: Phe^86 mTNFα: Tyr^86 Phe mutant of mTNFα, control without NO2 group (protein)
chain: LRSSSQNSSDKPVAHVVANHQVEEQLEWLSQRANALLANGMDLKDNQLVVPADGLYLVYSQVLFKGQGCPDYVLLTHTVSRFAISFQEKVNLLSAVKSPCPKDTPEGAELKPWYEPIYLGGVFQLEKGDQLSAEVNLPKYLDFAESGQVYFGVIAL
B2: WT mTNFα: wild-type murine tumor necrosis factor-α expressed in E. coli (protein)
chain: MSTESMIRDVELAEEALPQKMGGFQNSRRCLCLSLFSFLLVAGATTLFCLLNFGVIGPQRDEKFPNGLPLISSMAQTLTLRSSSQNSSDKPVAHVVANHQVEEQLEWLSQRANALLANGMDLKDNQLVVPADGLYLVYSQVLFKGQGCPDYVLLTHTVSRFAISYQEKVNLLSAVKSPCPKDTPEGAELKPWYEPIYLGGVFQLEKGDQLSAEVNLPKYLDFAESGQVYFGVIAL

Legend:
WT mTNFα [1] = biological target: T1, WT mTNFα (Mus musculus, UniProt P06804); format: in vivo, mice
T1 construct: ELISAs were measured against WT mTNFα aa 1-156; His6 tag followed by factor Xa cleavage site (N, cleaved yes); made in house; host or cells: E. coli BL21(DE3)
T1 sequence (P06804 80-235): B1 chain with F86Y
Description: (§1) The plates were washed with PBST between incubations.
(§2) 30 μl of 0.5 μg/ml protein was used to coat the wells of Maxisorp 384-well plates (Nunc, Rochester, N.Y.) overnight at 4° C. After washing with PBS+0.05% Tween 20 (PBST), the coated plates were blocked with 80 μl of 1% BSA in PBS, and washed again with PBST. The plates were sequentially incubated with 20 μl of primary antibody or serum diluted in 1% BSA in PBS, 20 μl of HRP-conjugated goat anti-mouse IgG or anti-mouse IgM (Jackson ImmunoResearch Laboratories, West Grove, Pa.), and 20 μl of TMB substrate (KPL, Gaithersburg, Md.), and read at an absorbance of 650 nm. Between incubations, the plates were washed at least six times with PBST.

[2] = system: CD4+ T cells from immunized mice; test: T cell proliferation assay; format: cell-based; conditions: Bcl-2 mice, stimulated in vitro with pNO2Phe^86 mTNFα
Description: For mice immunized without adjuvant, the RIMMS protocol involved 8 injections (5 μg protein/injection) over a period of 17 days. For mice immunized with adjuvant, CFA was used for the first injection and IFA for the remaining 7 injections. […] To perform the T-cell proliferation assays, CD4^+ T cells from immunized mice were isolated from lymph nodes by magnetic depletion with MACS beads (Miltenyi Biotec). T cells were then placed into culture with irradiated splenocytes from naïve Bcl-2 mice and increasing amounts of antigen. The cultures were incubated for 48 h and then pulsed with [^3H]thymidine overnight. The culture plates were harvested onto filter mats and radioactivity was quantified with a TopCount scintillation counter (PerkinElmer).
Isolation of CD4^+ T cells from the lymph nodes of immunized C57BL/6 mice was carried out by magnetic depletion with MACS beads (Miltenyi Biotec, Auburn, Calif.). T cells were then placed into culture with irradiated splenocytes from naïve C57BL/6 mice and increasing amounts of antigen. Following incubation for 48 h, the cultures were incubated with ^3H-thymidine overnight. After harvesting the culture plates onto filter mats, radioactivity was quantified with a TopCount scintillation counter (PerkinElmer, Boston, Mass.).

WT mTNFα [3] = format: in vivo, mice; conditions: C57BL/6 mice, 8 injections of 5 μg over 17 days, CFA/IFA, serum diluted 1/1000
Description: as §1, §2

[4] = system: C57BL/6 mice, lipopolysaccharide (LPS) challenge; test: LPS challenge in TNFα-dependent severe endotoxemia mouse model; format: in vivo
[5] = system: NFκB pathway in HEK293 cells stably expressing NFκB-Luc; conditions: NF-κB-luciferase activity analysis of mTNFα variants
Description: The biological activities of the proteins were assayed by measuring the mTNFα-induced activation of NFκB pathway in a NFκB-luciferase reporter cell line. […] The stable cells were dissociated with trypsin, resuspended in DMEM containing 10% FBS at 5×10^5 cells/ml, and plated at 20 μl/well in 384-well white plate (Greiner, Longwood, Fla.). After 2 hours incubation at 5% CO2 in a 37° C. tissue culture incubator, 20 μl of TNFα was added to the cells. The cells were continuously incubated for 24 hours. Luciferase activities were measured by addition of 20 μl Bright-Glo (Promega, Madison, Wis.), and the plate was read using a luminescence plate reader.
The activity of pNO2Phe mTNFα mutants was determined by an NFκB-luciferase reporter gene assay using HEK293 cells stably expressing NFκB-luciferase as described previously (Grunewald, J. et al. (2008) “Immunochemical termination of self-tolerance.” Proc Natl Acad Sci USA 105: 11276-11280).

Molecule	anti-TNFα titers (WT mTNFα [1]; Bcl2 mice, presence or absence of CFA/IFA)	CD4+ T cells specific for pNO2Phe^86 mTNFα elicited by immunization [2]	sustaining titers of cross-reactive anti-mTNFα antibodies (WT mTNFα [1]; one injection of pNO2Phe^86 mTNFα in CFA, then 7 injections in IFA)	serum IgG titers against pNO2Phe^86 mTNFα and WT mTNFα (WT mTNFα [3])	survival rate ([4]; active immunization, C57BL/6 mice, LPS 8.5 mg/kg i.p.) [%]	survival rate ([4]; passive: pooled serum (100 uL) or purified IgG (4 mg/kg) from immunized Bcl-2 mice, LPS 7.5 mg/kg)	EC50 [5] [nM]
B1	no significant anti-TNFα titers	not when mice were immunized	–	–	–	–	–
B2	–	not when mice were immunized	cannot sustain significant titers	insignificant serum IgG titers	12.5	16.7-25.0%	0.216
